Laboratory results published in US20200239597A1, “AN ANTI-APOPTOTIC FUNCTION OF PKM2 AND INTRACELLULARLY EXPRESSED SCFV ANTIBODIES” (La Jolla Institute for Allergy and Immunology, priority 2017, published 2020).

Key:
WT PKM2 [1] = target: T1, WT PKM2 (Homo sapiens, UniProt P14618); test: Blue native gel electrophoresis of recombinant proteins, WT PKM2; assay type: binding
T1 construct: His (N); made in house; host or cells: Escherichia coli BL21(DE3)
Protocol: (§1) Left: A monovalent form of scFv 5, produced in E. coli, induced tetramer formation in WT PKM2 along with a bandshift whose magnitude was dependent on the input amount of scFv 5. […] Reaction volume was 20 μl.
Because glucose metabolism can influence cell survival (Fulda and Debatin, 2007; Moley and Mueckler, 2000; Munoz-Pinedo et al., 2012), The present inventors asked whether IB5 could rescue cells simply through stimulating PKM2's glycolytic activity. First, to analyze the antibody's interaction with PKM2, the present inventors produced monovalent scFv 5 and PIKM2 as recombinant proteins in E. coli and analyzed mixtures of these proteins, by blue native gel electrophoresis (FIG. 3A).

PKM2 (K422R) = target: T2, PKM2 (K422R) (Homo sapiens, UniProt P14618, K422R); test: Blue native gel electrophoresis, PKM2 (K422R); assay type: binding; conditions: with or without FBP
T2 construct: His; made in house; host or cells: Escherichia coli BL21(DE3) (stated generally for WT and mutant PKM2)
Protocol: as §1
To test the possibility that PKM2 tetramerization is important for the cell survival activity, the present inventors reconstituted PKM2-deficient MEFs with the stably tetrameric PKIM2 (K422R) mutant. […] Blue native gel electrophoresis confirmed the spontaneous formation of K422R tetramers, in the absence of FBP (FIG. 4A). […] The present inventors conclude that IB5 can bind to PKIM2 (K422R), at least to the active R-state form. Interaction of IB5 may further stabilize the active R-state conformation of PKM2, especially in the presence of the allosteric activators FBP or TEPP-46.

HCT116 cells = test: Clonogenic rescue from BimS-induced death, HCT116; assay type: cell-based
[2] = system: mouse embryonic fibroblasts (MEFs); test: BimS-induced death in MEFs (WT, PKM2-deficient, reconstituted), surviving cells counted; assay type: cell-based
Protocol: Wild type (WT) mouse embryonic fibroblasts (MEFs), PKM2-deficient MEFs, or PKM2-deficient MEFs reconstituted with WT or mutant PKIM2 cDNA, were infected or not with IB5, then later transfected with BimS expression plasmid. Surviving cells were counted 48 h afterwards.
Cell viability was measured with a Countess™ Automated Cell Counter (Invitrogen) using trypan blue. For the clonogenic survival assay, 293T or MEFs cells were seeded in 6-well plates at 1×10^5 cells/well in a 2-ml volume, transfected with BimS cDNA and incubated for 24 h. Afterwards, the medium was replaced and the cells cultured for 3-4 days. Thereafter, the plates were rinsed with PBS and fixed and stained with a solution containing crystal violet (0.5% w/v) and glutaraldehyde (6% v/v) as described (Franken et al., 2006).

MDA-MB231-LM2 = test: Clonogenic rescue from BimS-induced death, MDA-MB231-LM2; assay type: cell-based; conditions: lung metastatic derivative MDA-MB231-LM2
Protocol: (§2) Control or IB5-expressing cells were transfected with BimS cDNA. The plates were fixed and stained with crystal violet after 12 days and the total areas of colonies were measured. Mean, SD and P values were calculated from 3 individual plates.

PKM1 = PKM1 (Homo sapiens, UniProt P14618); test: Blue native gel electrophoresis of recombinant proteins, PKM1; assay type: binding
[3] = system: mitochondria isolated from 293T cells; test: Mitochondria isolation and cytochrome c release assay (MOMP induced by cleaved Bid); assay type: cell-based, human; conditions: mitochondria from IB5-expressing 293T cells, 30 min at 37° C.
Protocol: Control (top) or Intrabody-expressing (bottom) 293T cells were collected and the mitochondrial fraction was isolated by differential centrifugation. To induce MOMP, recombinant cBid protein was added at the indicated concentrations. After incubation for 30 min at 37° C., samples were centrifuged, and cytochrome c (cyt c) content in mitochondrial pellet fractions was analyzed by immunoblot. A representative of three independent experiments is shown. Right panel: densitometric quantification of average cytochrome c content ±SEM from three independent experiments.
Mitochondria were isolated from 5×10^8 cells as described (Waterhouse et al., 2001). The freshly isolated mitochondria ([…]) were then incubated with recombinant cleaved Bid protein (Kuwana et al., 2002) at the indicated concentrations in the presence or absence of purified scFv #5. After incubation for 30 min at 37° C., mitochondria were collected by centrifugation at 10 000×g and analyzed by immunoblotting as described (Waterhouse et al., 2001).

Mfn1, Mfn2 = test: Immunoblot of Mfn1 and Mfn2 protein levels in reconstituted MEFs; assay type: cell-based, mouse
PKM2 (K270M) = target: T3, PKM2 (K270M) (Homo sapiens, UniProt P14618, K270M); test: Blue native gel electrophoresis, PKM2 (K270M); assay type: binding; conditions: not shown
T3 construct: His (N); made in house; host or cells: Escherichia coli BL21(DE3)
Description: To begin to define the aspects of PKM2 function required for the IB5-induced anti-apoptotic effect, the present inventors reconstituted PKM2-null MEFs with WT or mutant forms of PKM2. The present inventors first analyzed the K270M mutation, reported to be catalytically dead (Bollenbach et al., 1999; Dombrauckas et al., 2005; Luo et al., 2011).

[4] = system: endogenous PKM2, Bim EL and L isoforms; test: Expression of endogenous PKM2 and Bim isoforms in 293T cells; assay type: cell-based, human
MDA-MB231 = test: Clonogenic rescue from BimS-induced death, MDA-MB231; assay type: cell-based; conditions: parental MDA-MB231
Protocol: as §2

U2OS cells = test: Clonogenic rescue from BimS-induced death, U2OS; assay type: cell-based
WT PKM2 [5] = target: T1, WT PKM2; test: Pyruvate kinase assay (Kinase-Glo Plus), WT PKM2; assay type: biochemical; conditions: PKM2 at 50 nM; ADP and PEP as substrates
Protocol: Activity was measured by Kinase-Glo® Plus Luminescent Kinase Assay kit (promega), using ADP and PEP as substrates), with PKM2 at 50 nM. Shown are values with the basal activity of PKM2 alone subtracted out.
Pyruvate kinase activity was measured by using Kinase-Glo® Plus Luminescent Kinase Assay kit (Promega). 50-100 nM of purified WT or mutant PKM2 was added in 100 μl assay buffer containing 50 mM Tris pH7.5, 100 mM KCl, 10 mM MgCl2, 200 μM PEP, 200 μM ADP, and 3% DMSO. After a 15-min incubation, Kinase-Glo Plus™ reagent (Promega Corporation, Madison, Wis., USA) was added, according to the manufacturer's instructions. In some cases, 0-40 μM fructose 1,6-bisphosphate (FBP) and 0-150 nM scFv 5 were added.

T1 sequence (P14618 whole entry): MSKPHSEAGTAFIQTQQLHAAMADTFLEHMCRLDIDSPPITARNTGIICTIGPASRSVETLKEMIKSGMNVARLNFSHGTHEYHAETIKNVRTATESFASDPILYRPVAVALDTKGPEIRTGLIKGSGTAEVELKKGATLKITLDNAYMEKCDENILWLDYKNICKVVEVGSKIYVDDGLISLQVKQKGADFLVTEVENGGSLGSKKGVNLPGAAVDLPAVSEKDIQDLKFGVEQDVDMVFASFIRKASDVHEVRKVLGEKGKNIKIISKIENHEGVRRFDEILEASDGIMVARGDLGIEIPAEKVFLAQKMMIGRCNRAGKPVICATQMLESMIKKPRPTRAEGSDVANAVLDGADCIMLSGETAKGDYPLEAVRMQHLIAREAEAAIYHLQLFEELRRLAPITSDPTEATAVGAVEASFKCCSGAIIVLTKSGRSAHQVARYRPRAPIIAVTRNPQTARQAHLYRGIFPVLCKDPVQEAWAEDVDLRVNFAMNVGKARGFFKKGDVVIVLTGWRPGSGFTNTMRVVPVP
T2 sequence (P14618 whole entry K422R): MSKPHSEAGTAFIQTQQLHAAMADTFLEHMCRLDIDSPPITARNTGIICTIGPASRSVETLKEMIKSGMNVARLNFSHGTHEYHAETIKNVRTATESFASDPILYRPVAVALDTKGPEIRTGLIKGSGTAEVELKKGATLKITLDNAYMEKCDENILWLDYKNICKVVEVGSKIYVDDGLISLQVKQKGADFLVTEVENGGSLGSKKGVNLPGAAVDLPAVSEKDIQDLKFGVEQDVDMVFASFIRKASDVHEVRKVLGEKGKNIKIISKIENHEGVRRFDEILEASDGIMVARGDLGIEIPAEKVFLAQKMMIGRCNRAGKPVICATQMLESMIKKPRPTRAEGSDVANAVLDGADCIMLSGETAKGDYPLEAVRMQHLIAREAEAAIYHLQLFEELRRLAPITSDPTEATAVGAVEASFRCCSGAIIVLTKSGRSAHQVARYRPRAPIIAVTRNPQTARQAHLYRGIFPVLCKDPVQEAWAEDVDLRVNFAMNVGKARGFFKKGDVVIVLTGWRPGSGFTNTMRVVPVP
T3 sequence (P14618 whole entry K270M): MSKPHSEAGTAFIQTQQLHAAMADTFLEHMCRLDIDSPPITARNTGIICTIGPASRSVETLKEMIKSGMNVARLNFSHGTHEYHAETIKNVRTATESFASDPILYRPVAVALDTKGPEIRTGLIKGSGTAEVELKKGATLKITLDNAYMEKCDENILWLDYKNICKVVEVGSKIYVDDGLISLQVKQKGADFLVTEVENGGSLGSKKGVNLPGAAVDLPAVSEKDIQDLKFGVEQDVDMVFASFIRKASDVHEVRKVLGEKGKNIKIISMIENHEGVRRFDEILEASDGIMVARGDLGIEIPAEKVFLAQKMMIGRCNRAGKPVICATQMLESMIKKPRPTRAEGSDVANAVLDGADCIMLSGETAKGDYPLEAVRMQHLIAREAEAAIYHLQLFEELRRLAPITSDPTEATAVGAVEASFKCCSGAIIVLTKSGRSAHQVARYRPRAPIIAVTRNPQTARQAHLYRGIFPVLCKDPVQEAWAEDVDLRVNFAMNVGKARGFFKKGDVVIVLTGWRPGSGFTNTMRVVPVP
Chain of PKM1 (P14618 1-531 isoform P14618-2, species assumed): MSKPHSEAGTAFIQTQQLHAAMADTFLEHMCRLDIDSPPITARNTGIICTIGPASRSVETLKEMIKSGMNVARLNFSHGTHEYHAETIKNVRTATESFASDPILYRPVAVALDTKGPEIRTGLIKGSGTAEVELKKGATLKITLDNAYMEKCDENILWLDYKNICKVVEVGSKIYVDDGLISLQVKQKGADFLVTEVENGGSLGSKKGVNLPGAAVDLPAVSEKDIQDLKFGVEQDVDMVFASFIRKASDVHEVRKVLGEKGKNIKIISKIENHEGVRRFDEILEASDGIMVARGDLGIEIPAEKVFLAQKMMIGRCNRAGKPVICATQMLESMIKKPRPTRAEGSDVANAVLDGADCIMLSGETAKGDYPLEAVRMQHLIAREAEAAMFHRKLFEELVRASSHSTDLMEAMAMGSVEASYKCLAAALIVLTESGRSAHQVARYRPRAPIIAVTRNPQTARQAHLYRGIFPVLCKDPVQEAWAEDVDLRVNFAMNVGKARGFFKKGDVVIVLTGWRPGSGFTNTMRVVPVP

B1: IB5: intracellularly expressed single-chain antibody (scFv) specific for PKM2, SEQ ID NO: 2; also made as monovalent recombinant scFv in E. coli (protein)
scFv: MAQVQLVETGPGLVKPSETLSLRCTVSGGSFDNYYWNWIRQPPGKGLEYIGYVFPSTGATNYNPSLGSRVTISLDTSKNQFSLTLTSVTTADTAIYYCVRSGHDLWTGSTWFDPWGQWTTVTVSSGGGGSGGGGSGGGGSEIVLTQSPGTLSLSPGERATLSCRASQSVSSSYLAWYQQKPGQAPRLLIYGASSRATGIPDRFSGSGSGTDFTLTISRLEPEDIAVYYCQQRSNWPRTFGQGTKVEIKRGLGGLASVDYKDDDDK
modifications: artificial intrabody clone 5
notes: also made as monovalent recombinant scFv in E. coli
tetramer formation of WT PKM2 (WT PKM2 [1]; blue native gel): strongly increased the tetrameric PIKMV2 species
direct binding to PKM2 (WT PKM2 [1]; in vitro experiments): bound directly to PKM2
shift of the PKM2 (K422R) tetramer band (PKM2 (K422R)): shifted the tetramer band up only in the presence of allosteric activator FBP
protection from BimS-induced apoptosis (clonogenicity) (HCT116 cells): substantially protected
rescue from BimS-induced killing ([2]; PKM2-deficient MEFs): entirely abrogated
cell rescue after reconstitution ([2]; PKM2-null MEFs reconstituted with PKM2 (K270M)): failed to support IB5-induced cell rescue
cytoprotective ability after reconstitution ([2]; PKM2-null MEFs reconstituted with WT PKM2 cDNA): restored the cytoprotective ability of IB5
rescue from BimS-induced killing ([2]; WT MEFs): rescued a percentage of the WT cells
numbers of viable cells ([2]; early-passage MEFs reconstituted with PKM2 (K422R)): further increased viability
rescue from BimS-induced cell death (MDA-MB231-LM2): failed to rescue
shift of electrophoretic mobility of recombinant PKM1 (PKM1): failed to shift the electrophoretic mobility
resistance of mitochondria to MOMP induced by cleaved Bid protein [3]: reproducibly more resistant than control mitochondria to MOMP
levels of Mfn1 (Mfn1, Mfn2; cells expressing the K422R mutant): upregulated Mfn1 even further
Mfn2 levels (Mfn1, Mfn2; reconstituted MEFs): left Mfn2 levels unchanged
levels of Mfn1 (Mfn1, Mfn2; reconstituted MEFs): substantially increased
stable tetramer formation of PKM2 (K270M) (PKM2 (K270M)): prevented the protein from forming stable tetramers
expression of endogenous Bim EL and L isoforms [4]: no effect
expression of endogenous PKM2 [4]: no effect
rescue from BimS-induced cell death (MDA-MB231): failed to rescue
protection from BimS-induced apoptosis (clonogenicity) (U2OS cells): substantially protected
glycolytic (pyruvate kinase) activity of WT PKM2 (WT PKM2 [5]): stimulated PKM2's glycolytic activity in a concentration-dependent manner
